Source: patent publication US10072252B2 (priority 2013, dated 2018)
Where a chain is given by its changes, count along the chain named. Names may count otherwise.

B1: SsoPox W263I: SEQ ID NO: 3 with substitution of tryptophan W in position 263 by isoleucine I (protein, listed as Sulfolobus solfataricus)
chain: MRIPLVGKDSIESKDIGFTLIHEHLRVFSEAVRQQWPHLYNEDEEFRNAVNEVKRAMQFGVKTIVDPTVMGLGRDIRFMEKVVKATGINLVAGTGIYIYIDLPFYFLNRSIDEIADLFIHDIKEGIQGTLNKAGFVKIAADEPGITKDVEKVIRAAAIANKETKVPIITHSNAHNNTGLEQQRILTEEGVDPGKILIGHLGDTDNIDYIKKIADKGSFIGLDRYGLDLFLPVDKRNETTLRLIKDGYSDKIMISHDYCCTIDIGTAKPEYKPKLAPRWSITLIFEDTIPFLKRNGVNEEVIATIFKENPKKFFS
B2: SsoPox: SsoPox enzyme tested for ecotoxicity; variant not specified (protein, UniProt Q97VT7 1-314, looked up)
Aryldialkylphosphatase: B1 chain with I263W

How the values were obtained:
lasB transcription = format: cell-based, P. aeruginosa
3-oxo-C12 AHL = format: cell-based, Pseudomonas aeruginosa
[1] = rat, in vivo
[2] = system: P. aeruginosa PAO1 biofilm formation; format: cell-based
[3] = format: physicochemical; settings: pH 8
P. aeruginosa PAO1 = settings: in vivo
[4] = system: sea urchins larvae (Paracentrotus lividus); settings: in vivo

Molecule	half inhibition concentration ([C1/2]) of lasB transcription (lasB transcription)	relative lactonase activity in screening (3-oxo-C12 AHL hydrolysis) (3-oxo-C12 AHL)	acute inflammatory reactions in the respiratory parenchyma [1]	histological analysis of lungs [1]	macroscopic aspect of lungs removed after treatment [1]	spontaneous mortality [1]	tolerance of tracheal instillation [1]	[C1/2] of inhibition of biofilm formation [2]	melting temperature [3] [°C]	mean time to death (P. aeruginosa PAO1) [h]	mortality rate (P. aeruginosa PAO1) [%]	effects on viability and development [4]
B1	around 0.5 μg/mL	selected for a potential lactonase activity improvement	no observable acute inflammatory reactions	normal lung parenchyma	no macroscopic signs of injury	no spontaneous mortality was observed	well tolerated	approximately 170 μg/mL	87.8±1.2	37 ± 13	20	–
B2	–	–	–	–	–	–	–	–	–	–	–	no effects have been observed
